Measurements reported in patent US6787329.

Test system: T1, TMR-Val-Pro-Arg-Gly-Lys-TMR
T1 sequence: XPRGX

Substance: trypsin
- average fluorescence ratio w/ trypsin : w/o trypsin, excitation 360 nm, emission 570-585 nm: 26 fold
- average fluorescence ratio w/ trypsin : w/o trypsin, excitation 522 nm, emission 570-585 nm: 28 fold
- average fluorescence ratio w/ trypsin : w/o trypsin, excitation 530 nm, emission 570-585 nm: 27 fold
- average fluorescence ratio w/ trypsin : w/o trypsin, excitation 553 nm, emission 570-585 nm: 25 fold
- fluorescence ratio w/ trypsin : w/o trypsin, excitation 360 nm, emission 570 nm: 27 fold
- fluorescence ratio w/ trypsin : w/o trypsin, excitation 360 nm, emission 571 nm: 25 fold
- fluorescence ratio w/ trypsin : w/o trypsin, excitation 360 nm, emission 572 nm: 25 fold
- fluorescence ratio w/ trypsin : w/o trypsin, excitation 360 nm, emission 573 nm: 25 fold
- fluorescence ratio w/ trypsin : w/o trypsin, excitation 360 nm, emission 574 nm: 27 fold
- fluorescence ratio w/ trypsin : w/o trypsin, excitation 360 nm, emission 575 nm: 24 fold
- fluorescence ratio w/ trypsin : w/o trypsin, excitation 360 nm, emission 576 nm: 24 fold
- fluorescence ratio w/ trypsin : w/o trypsin, excitation 360 nm, emission 577 nm: 26 fold
- fluorescence ratio w/ trypsin : w/o trypsin, excitation 360 nm, emission 578 nm: 26 fold
- fluorescence ratio w/ trypsin : w/o trypsin, excitation 360 nm, emission 579 nm: 25 fold
- fluorescence ratio w/ trypsin : w/o trypsin, excitation 360 nm, emission 580 nm: 27 fold
- fluorescence ratio w/ trypsin : w/o trypsin, excitation 360 nm, emission 581 nm: 27 fold
- fluorescence ratio w/ trypsin : w/o trypsin, excitation 360 nm, emission 582 nm: 26 fold
- fluorescence ratio w/ trypsin : w/o trypsin, excitation 360 nm, emission 583 nm: 28 fold
- fluorescence ratio w/ trypsin : w/o trypsin, excitation 360 nm, emission 584 nm: 24 fold
- fluorescence ratio w/ trypsin : w/o trypsin, excitation 360 nm, emission 585 nm: 27 fold
- fluorescence ratio w/ trypsin : w/o trypsin, excitation 522 nm, emission 570 nm: 29 fold
- fluorescence ratio w/ trypsin : w/o trypsin, excitation 522 nm, emission 571 nm: 27 fold
- fluorescence ratio w/ trypsin : w/o trypsin, excitation 522 nm, emission 572 nm: 29 fold
- fluorescence ratio w/ trypsin : w/o trypsin, excitation 522 nm, emission 573 nm: 29 fold
- fluorescence ratio w/ trypsin : w/o trypsin, excitation 522 nm, emission 574 nm: 27 fold
- fluorescence ratio w/ trypsin : w/o trypsin, excitation 522 nm, emission 575 nm: 27 fold
- fluorescence ratio w/ trypsin : w/o trypsin, excitation 522 nm, emission 576 nm: 29 fold
- fluorescence ratio w/ trypsin : w/o trypsin, excitation 522 nm, emission 577 nm: 27 fold
- fluorescence ratio w/ trypsin : w/o trypsin, excitation 522 nm, emission 578 nm: 28 fold
- fluorescence ratio w/ trypsin : w/o trypsin, excitation 522 nm, emission 579 nm: 27 fold
- fluorescence ratio w/ trypsin : w/o trypsin, excitation 522 nm, emission 580 nm: 29 fold
- fluorescence ratio w/ trypsin : w/o trypsin, excitation 522 nm, emission 581 nm: 27 fold
- fluorescence ratio w/ trypsin : w/o trypsin, excitation 522 nm, emission 582 nm: 29 fold
- fluorescence ratio w/ trypsin : w/o trypsin, excitation 522 nm, emission 583 nm: 28 fold
- fluorescence ratio w/ trypsin : w/o trypsin, excitation 522 nm, emission 584 nm: 27 fold
- fluorescence ratio w/ trypsin : w/o trypsin, excitation 522 nm, emission 585 nm: 28 fold
- fluorescence ratio w/ trypsin : w/o trypsin, excitation 530 nm, emission 570 nm: 28 fold
- fluorescence ratio w/ trypsin : w/o trypsin, excitation 530 nm, emission 571 nm: 28 fold
- fluorescence ratio w/ trypsin : w/o trypsin, excitation 530 nm, emission 572 nm: 27 fold
- fluorescence ratio w/ trypsin : w/o trypsin, excitation 530 nm, emission 573 nm: 28 fold
- fluorescence ratio w/ trypsin : w/o trypsin, excitation 530 nm, emission 574 nm: 27 fold
- fluorescence ratio w/ trypsin : w/o trypsin, excitation 530 nm, emission 575 nm: 28 fold
- fluorescence ratio w/ trypsin : w/o trypsin, excitation 530 nm, emission 576 nm: 27 fold
- fluorescence ratio w/ trypsin : w/o trypsin, excitation 530 nm, emission 577 nm: 28 fold
- fluorescence ratio w/ trypsin : w/o trypsin, excitation 530 nm, emission 578 nm: 27 fold
- fluorescence ratio w/ trypsin : w/o trypsin, excitation 530 nm, emission 579 nm: 26 fold
- fluorescence ratio w/ trypsin : w/o trypsin, excitation 530 nm, emission 580 nm: 27 fold
- fluorescence ratio w/ trypsin : w/o trypsin, excitation 530 nm, emission 581 nm: 27 fold
- fluorescence ratio w/ trypsin : w/o trypsin, excitation 530 nm, emission 582 nm: 27 fold
- fluorescence ratio w/ trypsin : w/o trypsin, excitation 530 nm, emission 583 nm: 27 fold
- fluorescence ratio w/ trypsin : w/o trypsin, excitation 530 nm, emission 584 nm: 27 fold
- fluorescence ratio w/ trypsin : w/o trypsin, excitation 530 nm, emission 585 nm: 27 fold
- fluorescence ratio w/ trypsin : w/o trypsin, excitation 553 nm, emission 570 nm: 25 fold
- fluorescence ratio w/ trypsin : w/o trypsin, excitation 553 nm, emission 571 nm: 25 fold
- fluorescence ratio w/ trypsin : w/o trypsin, excitation 553 nm, emission 572 nm: 25 fold
- fluorescence ratio w/ trypsin : w/o trypsin, excitation 553 nm, emission 573 nm: 25 fold
- fluorescence ratio w/ trypsin : w/o trypsin, excitation 553 nm, emission 574 nm: 25 fold
- fluorescence ratio w/ trypsin : w/o trypsin, excitation 553 nm, emission 575 nm: 24 fold
- fluorescence ratio w/ trypsin : w/o trypsin, excitation 553 nm, emission 576 nm: 25 fold
- fluorescence ratio w/ trypsin : w/o trypsin, excitation 553 nm, emission 577 nm: 25 fold
- fluorescence ratio w/ trypsin : w/o trypsin, excitation 553 nm, emission 578 nm: 25 fold
- fluorescence ratio w/ trypsin : w/o trypsin, excitation 553 nm, emission 579 nm: 24 fold
- fluorescence ratio w/ trypsin : w/o trypsin, excitation 553 nm, emission 580 nm: 25 fold
- fluorescence ratio w/ trypsin : w/o trypsin, excitation 553 nm, emission 581 nm: 24 fold
- fluorescence ratio w/ trypsin : w/o trypsin, excitation 553 nm, emission 582 nm: 25 fold
- fluorescence ratio w/ trypsin : w/o trypsin, excitation 553 nm, emission 583 nm: 24 fold
- fluorescence ratio w/ trypsin : w/o trypsin, excitation 553 nm, emission 584 nm: 25 fold
- fluorescence ratio w/ trypsin : w/o trypsin, excitation 553 nm, emission 585 nm: 25 fold

Substance: trypsin-like enzyme of Vibrio parahaemolyticus
- increase in fluorescence on cleavage of the substrate: Cleavage by the trypsin-like enzyme produced an increase in fluorescence.
